The nature of the data set: yeast display, Sf9 membrane polyspecificity reagent, FACS + sequencing; frameworks hold sequencing errors. The method in brief: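 Sorting gates, low and high (top ~1%), were placed on anti-HA fluorescence to track expression and on streptavidin fluorescence to track reagent binding. A clone's polyreactivity label is taken from the gate it came out of. The reagent was 10% biotinylated, detergent-solubilized Sf9 membrane, applied for 1 hour at 4 °C to galactose-induced yeast display cells.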
For “QVQLVESGGGLVQAGGSLRLSCAASGGIFIANAMGWYRQAPGKERELVAAISSSGGSTYYADSVKGRFTISRDNAKNTVYLQMNSLKPEDTAVYYCAARRSVRRGGDYYWGQGTQVTVSS”, the “polyreactivity (PSR sort gate)” value is “high polyreactivity”. Then “QVQLVESGGGLVQAGGSLRLSCAASGGIFIFYAMGWYRQATGKERELVAASSNVSSTNYADSVKGRFTISRDNAKNTVYLQMNSLKPEDTAVYYCAAYYYYFYHKVIWYELDYWGQGTQVTVSS”, with “low polyreactivity”; and “QVQLVESGGGLVQAGGSLRLSCAASGGIFIRYAMGSYRQAPGKERELVAAITQSGAGTNYADSVKGRFTISRDNAKNTVYLQMNSLKPEDTAVYYCAATGLPGYYAYDYWGQGTQVTVSS”, with “low polyreactivity”; and “QVQLVESGGGLVQAGGSLRLSCAASGGIFKQYAMGWYRQAPGKERELVAAITWSGGSTYYADSVKGRFTISRDYAKNTVYLQMNSLKPEDTAVYYCAKDYVLFQYVDFQDDDYWGQGTQVTVSS”, with “low polyreactivity”. Then “QVQLVESGGGLVQAGGSLRLSCAASGGIFLPYAMGWYRQAPGKERELVAGITSVGSTYADSVKGRFTISRDNAKNTVYLQMNSLKPEDTAVYYCNADIYFVEYDYWGQGTQVTVSS”, with “low polyreactivity”; and “QVQLVESGGGLVQAGGSLRLSCAASGGIFNYYAMGWYRPAPGKVRELVAAISASGGSTYYADSVKGRFTISRDNAKNTVYLQMNSLIQEDTAVYYCAAGLPYGYGYDYWGQGTQVTVSS”, with “low polyreactivity”; and “QVQLVESGGGLVQAGGSLRLSCAASGGIFNYYAMGWYRQAPGKDRELVAAISASGGSTYYADSVKGRFTISRDYAKNTVYLQMNSLKPEDTAVYYCASGLPYGYGYDYWGQGTQVTVSS”, with “low polyreactivity”. On to “QVQLVESGGGLVQAGGSLRLSCAASGGIFPFNGMGWYRQAPGKERELVAAISSGGRTYYADSVKGRFTISRDNAKNTVYLQMNSLKPEDTAVYYCAARTSRYYYYPYAFYWGQGTQVTVSS”, for which the “polyreactivity (PSR sort gate)” value is listed as “high polyreactivity”. Under “QVQLVESGGGLVQAGGSLRLSCAASGGIFPGYAMGWYRQAPGKETELVAAISGSGSSTYYADSVKGRFTISRDHAKNTVYVQMNSLKPEDTAVYYCNVVTRVLPTRFDYWGQGTQVTVSS” stands “high polyreactivity”. Then “QVQLVESGGGLVQAGGSLRLSCAASGGIFPPNVMGWYRPAPGKETELVAANSRSGGSTYYADSVKGRFTISRDNAKNTVYLQMNSLTAEDTAVYYCAAANTQRGFRYDYWGQGTQVTVSS”, with “high polyreactivity”; and “QVQLVESGGGLVQAGGSLRLSCAASGGIFPYYAMGWYRQAPGKERELVAGISQNDGRTYYADSVKGRFTISRDNAKNTVYLQMNSLIPDDTAVYYCATEYWYPRYGYWGQGTQVTVSS”, with “low polyreactivity”; and “QVQLVESGGGLVQAGGSLRLSCAASGGIFQGYAMGWYRQAPGKERELVAAISRSGGRTYYADSVKGRFTISRDNAKKTVYLQMNSLKPEDTSVYYCAADIRLSKYDYRGQGTQVTVSS”, with “high polyreactivity”. Take “QVQLVESGGGLVQAGGSLRLSCAASGGIFQWYAMGWYRQAPGKVREFVAAITRRGGSTYYAYSVKGRFTISRDNAKNTVYLQMNSLKPEDTAVYYCAARPWADFDYWGQGTQVTVSS”: the “polyreactivity (PSR sort gate)” value is “low polyreactivity”.

As for “QVQLVESGGGLVQAGGSLRLSCAASGGIFRANALGWYRQAPGKERELVAAIRYSGGGTYYADSVKGRFTISRDNAKNTVYLQMNSLKPEDTAVYYCAARYRGRGYVAYDYWGQGTQVTVSS”, the “polyreactivity (PSR sort gate)” value is given as “high polyreactivity”. For the sequence “QVQLVESGGGLVQAGGSLRLSCAASGGIFRHNAMGWYRQAPGKEREFVAAISRSGGNTYYADSVKGRFTISRDNAKNTVYLQMNSLKPEDTAVYYCNKIEYDSWADHVYWGQGTQVTVSS”, the “polyreactivity (PSR sort gate)” value is listed as “low polyreactivity”. Take “QVQLVESGGGLVQAGGSLRLSCAASGGIFRKYAMGWDRQAPGKERDLVAAITSGGGTYYADSVKGRFTISRDNAKNTVLLQMNSQKPEDTAVYYCAARTLYVARRRPYYYWGQGTLVTVSS”: the “polyreactivity (PSR sort gate)” value is on record as “high polyreactivity”. Then “QVQLVESGGGLVQAGGSLRLSCAASGGIFRVYAMGWYRQAPGKERELVAAISRSGSSTYYAVSVKGRFTISRDNAKNTVYLQMNSLKPEDTAVYYCNAYSQYWLGNNYWGEGTQVTVSS”, with “high polyreactivity”; and “QVQLVESGGGLVQAGGSLRLSCAASGGIFRYYAMGWYRQAPGKERELVAAITSSGTSTYYADSVKGRFTISRDNAKNTVYLQMNSLKPEDTAVYYCAATRTKRKFDYWGQGTQVTVSS”, with “high polyreactivity”. Then “QVQLVESGGGLVQAGGSLRLSCAASGGIFSENALGWYRQAPGKERELVAVITTSGGSTYYADSVKGRFTISRDNAKNTVYLQMNSLKPEDTAVYYCAADVLSWEYDYWGQGTQVTVSS”, with “low polyreactivity”. Then “QVQLVESGGGLVQAGGSLRLSCAASGGIFSGNDMGWYRHAPGKESEFVAAISWSGGSTYYADSVKGRFTISRDNAKNTVYLQMNSLKPEDTAVYYCAAAHYFLGPQGASFYYWGQGTQVTVSS”, with “low polyreactivity”; and “QVQLVESGGGLVQAGGSLRLSCAASGGIFSVYAMGWYRQAPGKERELVAAITTSGGSTYYADSVKGRFTISRDNAKNTVYLQMNSLKPEDTAVYYCAADYPPTFYYWYEEYEYWGQGTQVTVSS”, with “low polyreactivity”; and “QVQLVESGGGLVQAGGSLRLSCAASGGIFTYYAMGWYRQAPGKERELVAAITWSGGSTYYADSVKGRFTISRDTAKNTVYLQMNSLKPEDTAVYYCNAVVLHVTTDNSTFTTDDYWGQGTQLTVSS”, with “low polyreactivity”. Consider “QVQLVESGGGLVQAGGSLRLSCAASGGIFVIYAMGWYRQAPGKERELVAAITWGGGTTYYADSVKGRFTISRDNAKNTVYLQMNSLNPEDTAVYYCNADGFVYGWYYYYEGYDYWGQGTQVTVSS”, for which the “polyreactivity (PSR sort gate)” value is “low polyreactivity”. Under “QVQLVESGGGLVQAGGSLRLSCAASGGIFVPNDMGWYRQAPGKERELVAAIRDGGSTNYADSVKGRFTISRDNAKNTVYLQMNSLKPEDTAVYYCAADYSLALAKYDYWGQGTQVTVSS” stands “low polyreactivity”; under “QVQLVESGGGLVQAGGSLRLSCAASGGIFVTYTMGWYRQAPGKERELVAGINSRSGSTYADSVKGRFTISRDNAKNTVYLQMNSLKLEDTAVYYCAADRIDLGRASRYGYWGQGTQVTVSS”, “low polyreactivity”. In the case of “QVQLVESGGGLVQAGGSLRLSCAASGGIFWNYAMGWYRQAPGKERELVAVINTGGRTYYADSVKGRFTISRDNAKYTVYLQMNSLKPEDTAVYYCAAKDFTIHYDYWGQGTQVTVSS”, the “polyreactivity (PSR sort gate)” value is listed as “high polyreactivity”. Then “QVQLVESGGGLVQAGGSLRLSCAASGGIFYDNAMGWYRQARGKEWELVAAINWSGGSTYYADSVKGRFTISRDNAKNTVYLQMNSLKPDDTAVYYCAASRYFYRTYWNFYGMDYSGQGTQVTVSS”, with “high polyreactivity”. As to “QVQLVESGGGLVQAGGSLRLSCAASGGIFYFNAMGWYRQAPGKERELVASITWSGGNTYYADSVKGRFTISRDNAKNTVYLQMNSLKPEDTAVYDCAADTQEYRPTYDYWGQGTQVTVSS”, the “polyreactivity (PSR sort gate)” value is listed as “low polyreactivity”. Then “QVQLVESGGGLVQAGGSLRLSCAASGGIFYGNVMGWYRQAPGKERQLVADITSVGSTYYADSVKGRFTFSRDNAKYTVYIQMNSLKPEDTAVYYCAAEPDHVAESHSGYDYWGQGTLVTVSS”, with “low polyreactivity”; and “QVQLVESGGGLVQAGGSLRLSCAASGGIFYTYAMGWSRQAPGKERELVAAISARGGSTYYADSVKGRFTISRDIAKNTVYLQMNSLKPDDTAVYYCAAETYILLEYDYWGQGTQVTVSS”, with “high polyreactivity”.

The record behind these values is the nanobody polyreactivity screen of Harvey et al. (2022).
